This note sets out measurements from US20150246947A1 (BAXALTA, published 2015).

For assay [1], the target named is T1, human Protein S (human, UniProt P07225 42-676).
T1 sequence: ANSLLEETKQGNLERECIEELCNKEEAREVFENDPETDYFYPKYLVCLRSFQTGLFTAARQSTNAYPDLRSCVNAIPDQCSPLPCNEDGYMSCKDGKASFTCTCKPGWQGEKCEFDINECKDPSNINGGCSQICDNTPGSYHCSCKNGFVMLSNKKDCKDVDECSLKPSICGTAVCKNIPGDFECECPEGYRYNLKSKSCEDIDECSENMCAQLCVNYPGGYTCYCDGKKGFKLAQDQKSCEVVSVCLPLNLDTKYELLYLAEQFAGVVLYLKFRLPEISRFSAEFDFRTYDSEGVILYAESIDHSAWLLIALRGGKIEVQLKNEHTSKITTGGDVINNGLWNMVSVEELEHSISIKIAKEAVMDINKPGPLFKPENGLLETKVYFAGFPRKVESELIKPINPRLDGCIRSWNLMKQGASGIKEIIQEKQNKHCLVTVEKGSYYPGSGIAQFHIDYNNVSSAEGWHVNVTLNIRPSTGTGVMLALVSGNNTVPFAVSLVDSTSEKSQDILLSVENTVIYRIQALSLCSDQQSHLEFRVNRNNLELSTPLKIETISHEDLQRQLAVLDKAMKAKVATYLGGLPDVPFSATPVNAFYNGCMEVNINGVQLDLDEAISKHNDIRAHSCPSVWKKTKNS
The assay is described as follows: cell-based or functional assay.

The target in assay [2] is T1, human Protein S. The assay is described as follows: Biacore (SPR), Protein S immobilized, 25 °C. How it is done:
(§1) Protein S affinity also was determined via Biacore (Biacore 3000 or Biacore T200) using human full-length Protein S and human GAS6. Briefly, 1000 RU of Protein S or GAS6 were immobilized on a CMS chip. In order to probe the kinetics of Protein S binding peptides to Protein S, the peptides were injected at various concentrations in a HBS-buffer containing 3 mM CaCl₂ and 1% DMSO to the flow cell and allowed to interact with the immobilized proteins on the sensor chip. The chip could be regenerated with 4 M MgCl₂ in HBS-buffer. Sensorgrams were fitted to a Langmuir binding model for the determination of kₒₙ and koff and the calculation of KD. Peptides were tested on their specificity to Protein S with peptide binding studies on the anti-target GAS6.
Background: In SPR one partner is held on a chip, and binding of the other changes the refractive index at the surface.

In assay [3] the target is T1, human Protein S. Description: Biacore (SPR), Protein S immobilized, 37 °C. As to the method: as §1
In assay [4] the target is T1, human Protein S. Description: competition ELISA IC50. How it is done:
The competition (IC50) ELISA was performed using biotinylated tracer peptide JBS0684 to compete for Protein S-binding with candidate peptides. Peptides that compete with the tracer bind the same region of Protein S as the tracer (and each other). Ninety-six well PolySorp plates (Nunc) were coated with 3 μg/mL Protein S in coating buffer (15 mM Na₂CO₃, 35 mM NaHCO₃, pH 9.6) over night. […] Plates were then washed three times with HNaT. JBS0684 was applied at a concentration corresponding to the EC90 value determined in the binding ELISA. A competitor stock solution of peptide (10 mM) was diluted 1/33.3 in HNaT without HSA, and a serial 1/3 dilution was prepared with HNaT with 3% DMSO. The dilution was further diluted with the biotinylated tracer peptide in a ratio of […] (20 μl competitor dilution and 100 μl tracer peptide). The mixture of competitor and tracer peptide was applied to the Protein S-coated microtiter plate and incubated for 1.5 hours. The plates were washed three times with HNaT. Peptide-Protein S binding was detected by applying HRP-conjugated streptavidin to the microtiter plate, incubating the mixture for one hour, washing the plate three times with HNaT, applying TMB (3,3′5,5′-Tetramethylbenzidin), and detecting the subsequent chromogenic conversion of TMB by HRP. IC50 measurements of peptides are provided herein (see, e.g., Table 3). […]
Background: ELISA stands for enzyme-linked immunosorbent assay.

Another assay addresses T2, human GAS6 (human, UniProt Q14393 49-678, limits assumed).
T2 construct: Immobilized on the Biacore chip; also called protein encoded by the Growth Arrest Specific-6 gene; anti-target
T2 sequence (looked up): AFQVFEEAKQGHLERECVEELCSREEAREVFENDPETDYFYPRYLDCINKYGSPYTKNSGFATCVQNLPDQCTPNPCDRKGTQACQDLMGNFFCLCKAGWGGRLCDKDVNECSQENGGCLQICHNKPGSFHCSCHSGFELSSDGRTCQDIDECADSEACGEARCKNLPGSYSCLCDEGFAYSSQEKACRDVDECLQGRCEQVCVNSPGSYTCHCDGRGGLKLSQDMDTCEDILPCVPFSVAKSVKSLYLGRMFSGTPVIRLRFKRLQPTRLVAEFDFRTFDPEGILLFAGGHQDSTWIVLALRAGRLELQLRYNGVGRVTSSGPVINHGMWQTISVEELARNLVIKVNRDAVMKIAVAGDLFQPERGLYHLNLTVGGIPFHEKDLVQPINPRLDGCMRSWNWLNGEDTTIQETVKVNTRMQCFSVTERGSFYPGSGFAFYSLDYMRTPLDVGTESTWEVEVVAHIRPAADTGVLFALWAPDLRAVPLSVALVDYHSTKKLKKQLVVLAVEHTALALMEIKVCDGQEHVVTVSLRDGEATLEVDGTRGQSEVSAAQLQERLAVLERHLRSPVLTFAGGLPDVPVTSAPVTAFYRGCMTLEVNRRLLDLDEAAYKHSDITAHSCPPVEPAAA
The assay is described as follows: Biacore (SPR), GAS6 immobilized on the chip; sensorgrams reviewed visually. How it is done:
as §1
Interactions with the anti-target GAS6 were measured via Biacore (surface plasmon resonance) (see Example 2). The maximum signal from the interaction of the peptides with human GAS6 was much lower than the signals obtained with Protein S as interaction partner. Kinetic analysis of the low GAS6 binding signals was error prone, and sensorgrams were reviewed visually to estimate anti-target binding. […]

B1: JBS2572 (peptide)
peptide: Ac-TGLVSAGWYDYNFDHYREFT-NH2
notes: also called parent peptide JBS2572
In the case of B1, the “CAT EC50” value with human Protein S [1] was 151 nM. Moreover, in the assay with human Protein S [2], binding was characterised by a dissociation constant (Kd) of 6 nM, the koff (usually the first-order rate constant of dissociation) came to 0.00148 s⁻¹ and the on-rate (kon) (usually a measure of how fast the partners come together) came to 248000 M⁻¹ s⁻¹. Moreover, in the assay with human Protein S [3], the Kd (as a rule, the constant that tells how readily two partners part at equilibrium) came to 3.8 nM; the koff is 0.00431 s⁻¹; the kon turned out to be 1.14e+06 M⁻¹ s⁻¹. The “fold increase in affinity compared to JBS2512” value in the assay with human Protein S [4] was found to be 1.6 fold. Further, the binding result with human GAS6 is listed as “no binding (tested: 1 µM)”.
